{"source": "a protein production outcome set (Wang et al. 2014)"}
{"assay": "label from the status in PepcDB records"}
{"sequence": "MIRMTKVDIISGFLGAGKTTFIKQLINQAFAGEKLVLIENEFGEIGIDGGFLKNAGIEITEMNSGCICCTLVGDFSKALKKVLEEYQPDRVIIEPSGVGKLSDIMKAIEDVKKDADIAIDGRITVVDGKKAKLYLKNFGEFFKDQVEHASAIVISRTQAMSDDKIEECVHMLRDENKEAAIISTPWAQLGKEAIIHALEKGSELAGLLEETHGQECCHHEHHHHEHEACGHEHHHHHADEIFTSWGKETAHKYTKEELDFMLKALSETEAYGTVLRSKGIIQMSDGSWRQFDLVPQEYEVREGQPDYTGRLCVIGTDLKEEELMTLFHLKLEHHHHHH", "protein production": "failed"}
{"sequence": "MIRNSGIHHEKLSQLLQSGHSLWVLYLDIAKFHEVEFRQGYRACAQILDLVLTEMKHTLHNYMHLFHTILLDYQGGDDFLFYFAPNENTPWSIAKLIPEFVPTLESRINHRIQRLVNETITLHSGLVECKPQPGRSVDYLLYGALKEAFLLNKSEPDPLYFSHREEVNRLLEEPQTYLSSAFQPILDVVSGEFFGFEALTRLKPPSSFAGIADLFPFAEKIGQLYPVETICRRTAILNSSQILRPKELLFLNVEPQVLTDPEFSSGQTRRLLETQGLTPSDVVLEITERSAIANYGTFREALEHYRKQGYLIALDDVGAGYSSLQSIAELHPDFLKIDRCLIQGIHLDPIKWALFETFVTFSRRIGCRILAEGVETQEEMRTVVQLGADYVQGYFIAKPSFTRPELSDPVTQIVQSQQRLSFNSEKTVQHLLEPLPLVTPQTTVNAVQNYFEEHAKIWLIGVADKGELLGVVQRDNLYSALATPFGVSLYSQRPVTSLMNNKQLLIEDTTPIEVASSLAMARPDAHLYDGIVVVQQQKPIGMIRVASLIKAMSDTQLQIAQGASPLTGLPGNSAIEQEIKRRLNSGNAFGMIYADLNQFKAFNDTYGFQYGDSIIKLLGKILMQDSLKADDLAFVGHVGGDDFIILTTQNVTKTLGETILLSFQEQLSAMQGAQDLSLALAGLIIYPHTAWTPATLSERIAAVKREAKKAHCNYFLLRE", "protein production": "failed"}
{"sequence": "MIRNTSNGWGSVSRWLHWILALTIIGMIGFGWWMNHIPARPDRFFYRSIHADIGYVILLLTVLRLVWRVVNPTPALPADSQPWQRLAARISHGALYLAVIAVIVLGWAHSGAHAPDYSDFFGLFHVPQFTSPDRAAANAYEDRHILFAYVLLALIAVHVVAALWHHFIRRDRVVTRMVADEAG", "protein production": "failed"}
{"sequence": "MIRTAKRTELIEVAQGRRPADIVIKGGTVVNVYSGEFLRQNVAIYHDAIAYVGEKEVAVDEHTIVIDAEGMYVSPGFIEPHAHPWVLYNPVSMTAKVLPLGTTTTVNDNLFFYLHFGVDGFRQLIEDLRVLPGHFFWLVRLVSQADFPGERDWFDPRHIQELLAMDEVVGTAEVTRWPLLYQGDPFLLETIEAAKRAGKVVDGHTAGCSYEKLNSIAASGVSACHEAITAEEALHRLRLGMWTTLRHSSLRPDFPEIIRLITEKKVSTQRITMTTDGPHPGFIEREGFVDGLVRKAVELGVPPMTALQMATINAATYLQLDDEIGGIAPGKLADILLLPDLVTFQPSLVIAKGRIVARDGKLLAPLPEIDWKRYVSKKPFLFAKERLDDERLYRYPHSESDQPVPVMYFKSNVITERKDVALPSVDGYADLSHHPGLLYAALIDRNGQWVAKAILERFALDIDGMASTYNTTTELLVIGKQPEAMAAAAKRVLEMGGGIVVIDGGRPVVEIPLPFTGMMTTDDSFDTAVRFHDELLSALQERGFPFHDILYTLLFLTCDFLPGLRLIPYGLYDVKRNEILLPAEKIGEKVVK", "protein production": "failed"}
{"sequence": "MISAWLLVLISITYISLLFLIAWAGDRHPGLYKRRLARTHIYGLSLAVYFTSWTFYGAVGRATQEGLAFLPIYLGPLLVFIFFAPLLRRIIYISKRNNSTSIADFIASRYGKSQVLAAMVAIFALIGSVPYIALQLKAIALGFNVLSGTGDSYQELSTAAWNDSAWYITLALAVFTVLFGTRHLESTEHHRGMIQAVAFESLIKLIAFVAVGLFVGYGLYDGFGDLFTRVREADLMGTLTTESLEAPAFLTQTLVAMLAIICLPRQFHVMVVENTDHRDFEVARWAMPIYLIIASAFVIPIAAAGLLSTHLAGSDPDIVILQLPIMAGEHWLAVLAFLGGGSAAAAMVIVCSVAIATMVSNEIIMPGLLKFFRPGMNRRTDLSFLLLTIRRVAIFVVLLTAYGFYRMAGEDYSLTAFGLLSFAAAAQFGPALVGGILWRQGNFTGAAWGLGLGFLMWCYTLLLPALVSTGWVADTLIEHGLFGWNWTRPTALFGSELDQISHGILWSLGVNTGAYILLSLITRQRIREKIQIAAFFHDAQPKAENAQHQSWQGEILTSDLQALTDRFMGEERSESIFRNYERRNAIRLYPQRPASTHLMKYIERQLASVIGASTARVVLESTLTGRDMQIEDVVSIVDEASQAMTFSRELLQSAIENISLGVSVVNHQQQLVVWNHRYLELFNYPKGFVRVGRPVEDLMRYNLTNANLSARRIDDIVENRCNSMREGKPMSYERQRPDGTVVRVDGSPIPGGGYVTTFQDITAMRRTEQALKETNIYLEQRVRERTQELQVINEQMLKAKSVAEQANQSKTRFLASASHDLLQPLNAARLFTSALSGKVNEGETRDLVDHIDSSLGAAEEIISTLLDISKLDAGALEPDIGVFPVNELLRHLATEFSAIAKDQGLELHVVPSTAWVRSDAKLLRRVVQNFLSNAIRYTASGKILMGCRRLKGYLRIEVWDTGPGMSDDQLNHIFEEFRRFQHGRDKKGLGLGLAIVDRISGMLNHPVTVHSIQGKGSVFGITVPVAPADQSRLDAQKSGSSSRRVSNLGGLHVLCIDNDAAILQGMVALLGNWQCDVTAAESLDDALTKLDGRQPDIILADYQLDDNRNGLDAMDSIREHLGNDIPGILITGYMAPEVRDDAGNRGYQVLYKPVKPAALRALVNKLLKQKRS", "protein production": "failed"}
{"sequence": "MISGDTLSAKKPKSVPQEEDQDPPSQSIALLDNHTDSSGSDSSTRSISSCFIFTSLLLVTCIALSAASAFAFLFFSSQKPVLSLNQISKSPAFDRSVARPLKKLDKPVVLLISSDGFRFGYQFKTKLPSIHRLIANGTEAETGLIPVFPTLTFPNHYSIVTGLYPAYHGIINNHFVDPETGNVFTMASHEPEWWLGEPLWETVVNQGLKAATYFWPGSEVHKGSWNCPQGLCQNYNGSVPFDDRVDTILSYFDLPSNEIPSFMTLYFEDPDHQGHQVGPDDPQITEAVVNIDRLIGRLIDGLEKRGIFEDVTMIMVGDHGMVGTCDKKLVVLDDLAPWIKIPSSWVQYYTPLLAIQPPSGHDAADIVAKINEGLSSGKVENGKYLKVYLKEDLPSRLHYVDSDRIPPIIGLVDEGFKVEQKKSKAKECGGAHGYDNAFFSMRTIFIGHGPMFSKGRKVPSFENVQIYNVISSILGLKAAPNNGSDEFSSSILLPRV", "protein production": "failed"}
{"sequence": "MISGFSMHSSAHYRQLLARLPQIAVAADQFEVLNSAKDFKSRILSLIASARQRIYLVALYLQDDEAGREILSALYAAKQRNPALDVKVFVDFHRAQRGLIGKGKQGGNHLMYQEMAARHEHQIAIYGVPVKGRELLGVLHLKGFIFDDTLLYSGASLNDIYLHQQDRYRFDRYHQITSPELTRSMVNYVDDLFLRSEAVQRLDRTDIPSAKQLKGPIRRFKHNLRLGQYRFDTMPVNSQEVAITPMSGLGKRGNQLNKMIRTLVRATEREIFICTPYFNPPKELNKDIEALLKRGCKVTIVVGDKTANDFFIPPEEKFSTIGGLPYLYETNLRKFAERNQHHIDAGRLNLMLWCCERNSYHLKGIFVDDEWALLTGNNLNPRAWALDLENGLLVYDRRHLLRPQFNAERENILANTKRISHFDQIEQIQDYPDQVRKLLARIHRVKAHILLKRII", "protein production": "failed"}
{"sequence": "MISGISGILCVVLVSKGKISNYFFGLIFAYTYFYVAWGSNFLGEMNTVLYVYLPSQFIGYFMWKANMQNSDGGESVIAKALTVKGWMTLIVVTTVGTLLFVQALQAAGGSSTGLDGLTTIITVAAQILMILPLS", "protein production": "failed"}
{"sequence": "MISGSATASHGRVLLPSQRERRPVSTGSNILRFRETVPRQFSLMMVTKATAKYMGTKMREEKLSEMIEEKVKEATEVCEAEEMSEECRVAWDEVEEVSQARADLRIKLKLLNQDPLESFCQENPETDECRIYED", "protein production": "failed"}
{"sequence": "MISNNPNHTEYDTWAWLYNQTMGPEYSQNQLKPLEKILLPQIKPNAKILDLCCGTGQLVQTLINRGYQITGVDNSSEMLNYARKNAPNGQFLLADARYFELPLSFDAAFSTSAALNHIMTIPELQQVFQRVYSALKENGWFLFDINHHQQMQRWWRGKIAEGEIENKYAWMVTPNYNPEERQGYFQVTMFQKKTKPSSARIIKIIWRLLSPILNHNLLYKLRIKLLSVFQAKEKNWQRMDEKYFVRGHIPEEIKIALQQTGFTDIQILTLEGNPTIDDRHSAYFLCRKPVNI", "protein production": "failed"}
{"sequence": "MISSLSASSSLVSSFVAVKATPVTGPLIPRRDLLSIRIRASSNQNSSGYCFPEKFKSFAKSAILIGAAVSMTGKFSTLPVKAESPVTTIEKTYEEVKEEKLSEITPLSELLDSTPEAVETLRSLLQQKLEKGEDEEALKLLERLVAAQPEETEWKFLMARLLGEMGRPENARQMFEEILQRNPLSFEALFENALLMDRSGEGNAVLQRLEDALAVAEAEYLVKEARDVRLIIAQIHFLQKNVDEALKSYEQLTKEDPKDFRPYFCRGMIYSLLDKNVEAKEQFAKYRELSPKKFEVEGYLRTPLSKMKLFGGSEEN", "protein production": "failed"}
{"sequence": "MISVAQYLEAATRPNTERAYAAATRHFEIEWGGHLPTTAEQVARYLAAYAGQLALNTLRHRLAALAQWHQAHGFADPTRAPVVRKVLKGIQTVHPSQEKRATPLQLTQLGQVVDWLDGAATAAGTRDDAAGRLRHMRDRAFVLLGFWRGFRGDELVRLQVQDLELVAGEGMTCFLPHSKSDRQHAGTTYKVPALSRWCPVAATMAWVAAAALHEGPLFRAVNQWGGIAAAPLHPNSLVPLLRRIFREAGLSSPNDYSGHSLRRGFAGWANANGWDVKALMEYVGWRDVHSAMRYLDGADPFARQRIEASVSPATPPLLALAAPAPDPVPTTAVEATVTLTRFNSRVRGLAKAHRLIEQICLQPHQAQRLNADGTRYRLAIAAVDEAAFEETIAMLLDEMHRIADNHQCFLAVALRDEAGGRHWD", "protein production": "failed"}
{"sequence": "MITIDPEYFEILKEFGAERVVRCYQCGTCTGICPVSTTDASFPRKPVLLSRFGVGEVIENFEEAWLCLSCNLCTEFCPRDVKPSETMLAIKRVLVENGKTPPYIRDFFQNIMKQKNPWGIGKFKREDWVKKSDVEVPKVKDNPEYEWLWFVGCAHAFENRNINVTLKMARILSDLGINFATLGREEGCCGNDVRRAGEEGLFEVLMEENIKTFGKYGVQRLFTHSPHCFNAFKNWYEGYEVKLFLEILRDAIKSGKLELKNKLDLTVTYHDSCYLGRYNGIYDLPREVLKLIPGVELVEMKSNRRMSLCCGGGAGNIVGDYPGEIQPARVRAQEAAETGANVLAVACPFCLLMLEDGVKTEKLDKQLVVKDIVELVYEAAYGEE", "protein production": "failed"}
{"sequence": "MITLAQAEVGKVYTVESVQADIQTKKHLNNLGVVAGQAVVLVNYQNQNGIVLLHNSRIALTDTILQAIHVEERSANEKVWVSLDTLKVGERATIVGIHGQGAVKRRLMDMGLTKGTVIFIRKVAPLADPIEINVRGYELTLRKSEAELILVEKEESELEHHHHHH", "protein production": "failed"}
{"sequence": "MITNKKCKGCGAFLNDQINTIGYTPKINETKTNLCQRCFKLIHYNKLEKVSTNLNQSIKETINTLNFSNLQIFAVLDILDLEHTIIDELKEYQNKIIFLVNKIDLLPQRYNSELVNENVVKTLINHGFIDPKIIYVSTHSNTSLKKVMDYIKNATNKKQKSIFFGKSNVGKSSLINALLALNKIKTKLTISSYTNTTINLNKINIQEHQILDAPGVCFDENILNYVRDEDNKSIMISYGAKAINYQINPQQALMISGLVGIQYLKGQKTTFTLYVSSQLDIHRCKLENFIMNFNKRYLLAKFNYLNQDLEFVDHLITLNKDQKTNICIAGLGLLVINAHAEQICIRLPKSVGLKVAKYAII", "protein production": "failed"}
{"sequence": "MITQNIESLNNIAKIQHAANTDYLTDLANRRAFFRSAESRIKEYINKKVPYCLAMIDVDFFKKVNDTYGHDSGDQVLKVIALYMRKHFGAGLTARLGGEEFAVLLHGLDADYLHNKLDDFRREIAVSSIPAGDTSISITLSLGVVFDSEDELSKQMNEADNALYAAKENGRNQIVVFGAELDDLEHHHHHH", "protein production": "not failed"}
